# Test results: IntAct's records for PubMed 31515488
# B1: ATP synthase mitochondrial F1 complex assembly factor 2 (Homo sapiens), Q8N5M1 (parent)
# chain: MWRSCLRLRDGGRRLLNRPAGGPSASMSPGPTIPSPARAYAPPTERKRFYQNVSITQGEGGFEINLDHRKLKTPQAKLFTVPSEALAIAVATEWDSQQDTIKYYTMHLTTLCNTSLDNPTQRNKDQLIRAAVKFLDTDTICYRVEEPETLVELQRNEWDPIIEWAEKRYGVEISSSTSIMGPSIPAKTREVLVSHLASYNTWALQGIEFVAAQLKSMVLTLGLIDLRLTVEQAVLLSRLEEEYQIQKWGNIEWAHDYELQELRARTAAGTLFIHLCSESTTVKHKLLKE
# partner: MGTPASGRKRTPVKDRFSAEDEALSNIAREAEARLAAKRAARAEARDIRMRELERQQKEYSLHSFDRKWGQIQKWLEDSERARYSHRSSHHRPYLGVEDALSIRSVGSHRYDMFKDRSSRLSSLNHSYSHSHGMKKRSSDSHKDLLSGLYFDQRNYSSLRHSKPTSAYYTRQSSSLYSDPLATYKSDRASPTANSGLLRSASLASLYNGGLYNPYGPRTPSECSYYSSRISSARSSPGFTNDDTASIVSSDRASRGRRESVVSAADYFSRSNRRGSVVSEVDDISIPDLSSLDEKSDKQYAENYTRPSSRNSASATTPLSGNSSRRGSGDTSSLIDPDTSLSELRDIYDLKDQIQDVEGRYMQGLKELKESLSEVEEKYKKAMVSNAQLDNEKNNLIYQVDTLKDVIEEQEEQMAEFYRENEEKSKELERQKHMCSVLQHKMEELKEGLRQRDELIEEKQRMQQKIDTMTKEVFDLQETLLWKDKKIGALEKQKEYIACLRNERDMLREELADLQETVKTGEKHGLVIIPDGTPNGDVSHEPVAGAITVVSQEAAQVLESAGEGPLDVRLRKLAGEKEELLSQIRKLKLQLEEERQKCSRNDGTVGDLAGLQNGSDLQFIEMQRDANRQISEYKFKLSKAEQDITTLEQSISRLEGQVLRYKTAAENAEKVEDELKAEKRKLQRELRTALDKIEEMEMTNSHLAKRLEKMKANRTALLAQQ
# B2: Protein unc-45 homolog A (Homo sapiens), Q9H3U1 (parent)
# chain: MTVSGPGTPEPRPATPGASSVEQLRKEGNELFKCGDYGGALAAYTQALGLDATPQDQAVLHRNRAACHLKLEDYDKAETEASKAIEKDGGDVKALYRRSQALEKLGRLDQAVLDLQRCVSLEPKNKVFQEALRNIGGQIQEKVRYMSSTDAKVEQMFQILLDPEEKGTEKKQKASQNLVVLAREDAGAEKIFRSNGVQLLQRLLDMGETDLMLAALRTLVGICSEHQSRTVATLSILGTRRVVSILGVESQAVSLAACHLLQVMFDALKEGVKKGFRGKEGAIIVDPARELKVLISNLLDLLTEVGVSGQGRDNALTLLIKAVPRKSLKDPNNSLTLWVIDQGLKKILEVGGSLQDPPGELAVTANSRMSASILLSKLFDDLKCDAERENFHRLCENYIKSWFEGQGLAGKLRAIQTVSCLLQGPCDAGNRALELSGVMESVIALCASEQEEEQLVAVEALIHAAGKAKRASFITANGVSLLKDLYKCSEKDSIRIRALVGLCKLGSAGGTDFSMKQFAEGSTLKLAKQCRKWLCNDQIDAGTRRWAVEGLAYLTFDADVKEEFVEDAAALKALFQLSRLEERSVLFAVASALVNCTNSYDYEEPDPKMVELAKYAKQHVPEQHPKDKPSFVRARVKKLLAAGVVSAMVCMVKTESPVLTSSCRELLSRVFLALVEEVEDRGTVVAQGGGRALIPLALEGTDVGQTKAAQALAKLTITSNPEMTFPGERIYEVVRPLVSLLHLNCSGLQNFEALMALTNLAGISERLRQKILKEKAVPMIEGYMFEEHEMIRRAATECMCNLAMSKEVQDLFEAQGNDRLKLLVLYSGEDDELLQRAAAGGLAMLTSMRPTLCSRIPQVTTHWLEILQALLLSSNQELQHRGAVVVLNMVEASREIASTLMESEMMEILSVLAKGDHSPVTRAAAACLDKAVEYGLIQPNQDGE
# B3: SH2 domain-containing protein 4A (Homo sapiens), Q9H788 (parent)
# chain: MLKQILSEMYIDPDLLAELSEEQKQILFFKMREEQIRRWKEREAAMERKESLPVKPRPKKENGKSVHWKLGADKEVWVWVMGEHHLDKPYDVLCNEIIAERARLKAEQEAEEPRKTHSEEFTNSLKTKSQYHDLQAPDNQQTKDIWKKVAEKEELEQGSRPAPTLEEEKIRSLSSSSRNIQQMLADSINRMKAYAFHQKKESMKKKQDEEINQIEEERTKQICKSWKEDSEWQASLRKSKAADEKRRSLAKQAREDYKRLSLGAQKGRGGERLQSPLRVPQKPERPPLPPKPQFLNSGAYPQKPLRNQGVVRTLSSSAQEDIIRWFKEEQLPLRAGYQKTSDTIAPWFHGILTLKKANELLLSTGMPGSFLIRVSERIKGYALSYLSEDGCKHFLIDASADAYSFLGVDQLQHATLADLVEYHKEEPITSLGKELLLYPCGQQDQLPDYLELFE
# B4: Notch homolog 2 N-terminal-like protein A (Homo sapiens), Q7Z3S9 (parent)
# chain: MCVTYHNGTGYCKCPEGFLGEYCQHRDPCEKNRCQNGGTCVAQAMLGKATCRCASGFTGEDCQYSTSHPCFVSRPCLNGGTCHMLSRDTYECTCQVGFTGKECQWTDACLSHPCANGSTCTTVANQFSCKCLTGFTGQKCETDVNECDIPGHCQHGGTCLNLPGSYQCQCLQGFTGQYCDSLYVPCAPSPCVNGGTCRQTGDFTFECNCLPETVRRGTELWERDREVWNGKEHDEN
# partner: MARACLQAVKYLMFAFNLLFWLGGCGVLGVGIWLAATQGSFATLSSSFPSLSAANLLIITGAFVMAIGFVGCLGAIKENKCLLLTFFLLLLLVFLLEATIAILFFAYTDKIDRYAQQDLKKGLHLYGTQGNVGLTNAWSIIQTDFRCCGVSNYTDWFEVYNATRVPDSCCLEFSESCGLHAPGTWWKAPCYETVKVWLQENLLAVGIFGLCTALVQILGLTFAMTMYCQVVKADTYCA
# B5: Myotubularin-related protein 9 (Homo sapiens), Q96QG7 (parent)
# chain: MEFAELIKTPRVDNVVLHRPFYPAVEGTLCLTGHHLILSSRQDNTEELWLLHSNIDAIDKRFVGSLGTIIIKCKDFRIIQLDIPGMEECLNIASSIEALSTLDSITLMYPFFYRPMFEVIEDGWHSFLPEQEFELYSSATSEWRLSYVNKEFAVCPSYPPIVTVPKSIDDEALRKVATFRHGGRFPVLSYYHKKNGMVIMRSGQPLTGTNGRRCKEDEKLINATLRAGKRGYIIDTRSLNVAQQTRAKGGGFEQEAHYPQWRRIHKSIERYHILQESLIKLVEACNDQTHNMDRWLSKLEASNWLTHIKEILTTACLAAQCIDREGASILIHGTEGTDSTLQVTSLAQIILEPRSRTIRGFEALIEREWLQAGHPFQQRCAQSAYCNTKQKWEAPVFLLFLDCVWQILRQFPCSFEFNENFLIMLFEHAYASQFGTFLGNNESERCKLKLQQKTMSLWSWVNQPSELSKFTNPLFEANNLVIWPSVAPQSLPLWEGIFLRWNRSSKYLDEAYEEMVNIIEYNKELQAKVNILRRQLAELETEDGMQESP
# partner: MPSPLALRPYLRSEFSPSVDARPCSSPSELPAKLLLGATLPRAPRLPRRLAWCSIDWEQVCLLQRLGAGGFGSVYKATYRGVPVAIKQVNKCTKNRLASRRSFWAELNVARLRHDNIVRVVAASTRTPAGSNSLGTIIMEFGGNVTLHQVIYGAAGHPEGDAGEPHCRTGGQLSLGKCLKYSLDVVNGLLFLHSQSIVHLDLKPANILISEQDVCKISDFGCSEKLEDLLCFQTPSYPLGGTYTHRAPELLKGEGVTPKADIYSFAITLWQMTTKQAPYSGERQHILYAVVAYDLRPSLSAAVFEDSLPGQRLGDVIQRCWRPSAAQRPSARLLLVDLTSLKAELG
# Variants of: B1
# Details: with lrrf2_human LRRFIP2, Q9Y608
row,Variant,effect of a mutation on the interaction
1,MWRSCLRLRDGGRRLLNRPAGGPSASMSPGPTIPSPARAYAPPTERKRFYQNVSITQGEGGFEINLDHRKLKTPQAKLFTVPSEALAIAVATEWDSQQDTIKYYTMHLTTLCNTSLDNPTQRNKDQLIRAAVKFLDTDTICYRVEEPETLVELQRNEWDPIIEWAEKRYGVEISSSTSIMGPSIPAKTREVLVSHLASYNTWALQGIEFVAAQLKSMVLTLGLIDLRLTVEQAVLLSRLEGEYQIQKWGNIEWAHDYELQELRARTAAGTLFIHLCSESTTVKHKLLKE [E241G],with no effect

# Variants of: B2
# Details: with trim1_human MID2, Q9UJV3
# Chain of trim1_human MID2, Q9UJV3 (Q9UJV3 whole entry): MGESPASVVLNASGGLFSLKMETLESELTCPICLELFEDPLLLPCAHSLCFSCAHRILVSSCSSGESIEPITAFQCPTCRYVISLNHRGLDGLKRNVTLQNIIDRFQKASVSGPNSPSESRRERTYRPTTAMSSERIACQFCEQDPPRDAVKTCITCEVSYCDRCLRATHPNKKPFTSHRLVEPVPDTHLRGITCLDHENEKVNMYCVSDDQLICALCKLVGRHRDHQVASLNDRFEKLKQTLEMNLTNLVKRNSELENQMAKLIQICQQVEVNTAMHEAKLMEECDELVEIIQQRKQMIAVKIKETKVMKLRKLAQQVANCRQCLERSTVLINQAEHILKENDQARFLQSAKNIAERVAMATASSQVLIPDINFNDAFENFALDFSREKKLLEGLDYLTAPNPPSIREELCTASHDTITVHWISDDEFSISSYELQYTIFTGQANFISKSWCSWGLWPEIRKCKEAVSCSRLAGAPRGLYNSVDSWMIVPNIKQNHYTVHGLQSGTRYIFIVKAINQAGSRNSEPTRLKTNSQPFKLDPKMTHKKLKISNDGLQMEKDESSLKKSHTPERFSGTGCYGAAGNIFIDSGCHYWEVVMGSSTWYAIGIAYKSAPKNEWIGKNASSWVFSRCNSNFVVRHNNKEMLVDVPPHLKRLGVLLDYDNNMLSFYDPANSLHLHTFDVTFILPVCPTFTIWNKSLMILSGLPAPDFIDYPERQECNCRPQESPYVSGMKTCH
row,Variant,effect of a mutation on the interaction
1,T796M,with no effect

# Variants of: B2
# Details: with max_human MAX
row,Variant,effect of a mutation on the interaction
1,Q251E,with no effect

# Variants of: B3
# Details: with tfp11_human TFIP11, Q9UBB9
# Chain of tfp11_human TFIP11, Q9UBB9 (Q9UBB9 whole entry): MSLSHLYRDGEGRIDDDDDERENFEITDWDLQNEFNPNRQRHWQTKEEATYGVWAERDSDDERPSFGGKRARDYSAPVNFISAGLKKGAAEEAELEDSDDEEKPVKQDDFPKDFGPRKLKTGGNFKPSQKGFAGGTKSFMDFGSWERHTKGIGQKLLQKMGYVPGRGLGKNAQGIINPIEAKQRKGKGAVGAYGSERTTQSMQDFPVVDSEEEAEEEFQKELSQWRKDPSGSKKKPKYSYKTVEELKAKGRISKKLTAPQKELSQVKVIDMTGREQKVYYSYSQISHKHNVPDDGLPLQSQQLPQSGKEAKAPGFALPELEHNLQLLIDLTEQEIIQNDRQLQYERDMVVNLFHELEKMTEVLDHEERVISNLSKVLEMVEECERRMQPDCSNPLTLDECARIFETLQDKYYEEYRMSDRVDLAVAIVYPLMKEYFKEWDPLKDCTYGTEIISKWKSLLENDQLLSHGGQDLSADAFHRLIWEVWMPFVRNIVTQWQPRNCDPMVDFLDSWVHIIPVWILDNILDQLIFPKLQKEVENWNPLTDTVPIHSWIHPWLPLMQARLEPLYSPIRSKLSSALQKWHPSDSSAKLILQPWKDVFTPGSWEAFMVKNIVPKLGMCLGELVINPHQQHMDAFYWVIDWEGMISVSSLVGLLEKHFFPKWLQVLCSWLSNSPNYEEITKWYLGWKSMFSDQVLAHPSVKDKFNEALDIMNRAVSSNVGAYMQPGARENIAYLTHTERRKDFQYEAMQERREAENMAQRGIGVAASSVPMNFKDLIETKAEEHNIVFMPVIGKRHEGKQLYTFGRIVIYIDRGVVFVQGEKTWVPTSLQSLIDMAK
row,Variant,effect of a mutation on the interaction
1,MLKQILSEMYIDPDLLAELSEEQKQILFFKMREEQIRRWKEREAAMERKESLPVKPRPKKENGKSVHWKLGADKEVWVWVMGEHHLDKPYDVLCNEIIAERARLKAEQEAEEPRKTHSEEFTNSLKTKSQYHDLQAPDNQQTKDIWKKVAEKEELEQGSRPAPTLEEEKIRSLSSSSRNIQQMLADSINRMKAYAFHQKKESMKKKQDEEINQIEGERTKQICKSWKEDSEWQASLRKSKAADEKRRSLAKQAREDYKRLSLGAQKGRGGERLQSPLRVPQKPERPPLPPKPQFLNSGAYPQKPLRNQGVVRTLSSSAQEDIIRWFKEEQLPLRAGYQKTSDTIAPWFHGILTLKKANELLLSTGMPGSFLIRVSERIKGYALSYLSEDGCKHFLIDASADAYSFLGVDQLQHATLADLVEYHKEEPITSLGKELLLYPCGQQDQLPDYLELFE [E216G],with no effect

# Variants of: B3
# Details: with tacc1_human TACC1, O75410
# Chain of tacc1_human TACC1, O75410 (O75410 whole entry): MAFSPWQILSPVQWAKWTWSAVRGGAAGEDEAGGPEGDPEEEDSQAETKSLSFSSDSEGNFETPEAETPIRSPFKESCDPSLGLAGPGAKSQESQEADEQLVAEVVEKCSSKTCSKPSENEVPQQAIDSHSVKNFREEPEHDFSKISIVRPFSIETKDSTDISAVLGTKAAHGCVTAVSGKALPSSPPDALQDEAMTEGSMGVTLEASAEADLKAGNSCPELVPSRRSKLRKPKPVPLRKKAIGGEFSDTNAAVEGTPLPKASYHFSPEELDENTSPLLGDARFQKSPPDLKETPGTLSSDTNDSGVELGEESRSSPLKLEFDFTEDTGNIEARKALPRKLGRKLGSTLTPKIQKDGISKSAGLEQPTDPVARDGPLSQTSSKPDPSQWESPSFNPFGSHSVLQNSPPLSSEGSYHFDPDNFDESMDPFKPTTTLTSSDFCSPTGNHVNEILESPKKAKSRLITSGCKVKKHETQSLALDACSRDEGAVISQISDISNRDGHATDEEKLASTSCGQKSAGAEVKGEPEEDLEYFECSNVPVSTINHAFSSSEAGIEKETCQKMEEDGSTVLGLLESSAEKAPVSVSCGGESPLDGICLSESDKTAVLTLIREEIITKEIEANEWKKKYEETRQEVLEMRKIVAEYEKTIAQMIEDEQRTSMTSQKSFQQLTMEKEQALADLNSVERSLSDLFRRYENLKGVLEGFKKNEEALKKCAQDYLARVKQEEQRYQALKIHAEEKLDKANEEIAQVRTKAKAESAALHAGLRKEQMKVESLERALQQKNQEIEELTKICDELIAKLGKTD
row,Variant,effect of a mutation on the interaction
1,MLKQILSEMYIDPDLLAELSEEQKQILFFKMREEQIRRWKEREAAMERKESLPVKPRPKKENGKSVHWKLGADKEVWVWVMGEHHLDKPYDVLCNEIIAERARLKAEQEAEEPRKTHSEEFTNSLKTKSQYHDLQAPDNQQTKDIWKKVAEKEELEQGSRPAPTLEEEKIRSLSSSSRNIQQMLADSINRMKAYAFHQKKESMKKKQDEEINQIEGERTKQICKSWKEDSEWQASLRKSKAADEKRRSLAKQAREDYKRLSLGAQKGRGGERLQSPLRVPQKPERPPLPPKPQFLNSGAYPQKPLRNQGVVRTLSSSAQEDIIRWFKEEQLPLRAGYQKTSDTIAPWFHGILTLKKANELLLSTGMPGSFLIRVSERIKGYALSYLSEDGCKHFLIDASADAYSFLGVDQLQHATLADLVEYHKEEPITSLGKELLLYPCGQQDQLPDYLELFE [E216G],with no effect

# Variants of: B3
# Details: with ldoc1_human LDOC1, O95751
# Chain of ldoc1_human LDOC1, O95751 (O95751 whole entry): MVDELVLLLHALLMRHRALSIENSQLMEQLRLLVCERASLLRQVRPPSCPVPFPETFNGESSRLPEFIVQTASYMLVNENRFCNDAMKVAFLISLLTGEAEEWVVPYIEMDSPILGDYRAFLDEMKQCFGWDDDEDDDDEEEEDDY
row,Variant,effect of a mutation on the interaction
1,MLKQILSEMYIDPDLLAELSEEQKQILFFKMREEQIRRWKEREAAMERKESLPVKPRPKKENGKSVHWKLGADKEVWVWVMGEHHLDKPYDVLCNEIIAERARLKAEQEAEEPRKTHSEEFTNSLKTKSQYHDLQAPDNQQTKDIWKKVAEKEELEQGSRPAPTLEEEKIRSLSSSSRNIQQMLADSINRMKAYAFHQKKESMKKKQDEEINQIEGERTKQICKSWKEDSEWQASLRKSKAADEKRRSLAKQAREDYKRLSLGAQKGRGGERLQSPLRVPQKPERPPLPPKPQFLNSGAYPQKPLRNQGVVRTLSSSAQEDIIRWFKEEQLPLRAGYQKTSDTIAPWFHGILTLKKANELLLSTGMPGSFLIRVSERIKGYALSYLSEDGCKHFLIDASADAYSFLGVDQLQHATLADLVEYHKEEPITSLGKELLLYPCGQQDQLPDYLELFE [E216G],with no effect

# Variants of: B4
# Details: with tsn4_human TSPAN4, O14817
row,Variant,effect of a mutation on the interaction
1,A115T,with no effect
2,R74Q,with no effect

# Variants of: B5
# Details: with mos_human MOS
row,Variant,effect of a mutation on the interaction
1,MEFAELIKTPRVDNVVLHRPFYPAVEGTLCLTGHHLILSSRQDNTEELWLLHSNIDAIDKRFVGSLGTIIIKCKDFRIIQLDIPGMEECLNIASSIEALSTLDSITLMYPFFYRPMFEVIEDGWHCFLPEQEFELYSSATSEWRLSYVNKEFAVCPSYPPIVTVPKSIDDEALRKVATFRHGGRFPVLSYYHKKNGMVIMRSGQPLTGTNGRRCKEDEKLINATLRAGKRGYIIDTRSLNVAQQTRAKGGGFEQEAHYPQWRRIHKSIERYHILQESLIKLVEACNDQTHNMDRWLSKLEASNWLTHIKEILTTACLAAQCIDREGASILIHGTEGTDSTLQVTSLAQIILEPRSRTIRGFEALIEREWLQAGHPFQQRCAQSAYCNTKQKWEAPVFLLFLDCVWQILRQFPCSFEFNENFLIMLFEHAYASQFGTFLGNNESERCKLKLQQKTMSLWSWVNQPSELSKFTNPLFEANNLVIWPSVAPQSLPLWEGIFLRWNRSSKYLDEAYEEMVNIIEYNKELQAKVNILRRQLAELETEDGMQESP [S126C],with no effect

# Variants of: B5
# Details: with mos_human MOS
# Remark: another data set of the same source
row,Variant,effect of a mutation on the interaction
1,MEFAELIKTPRVDNVVLHRPFYPAVEGTLCLTGHHLILSSRQDNTEELWLLHSNIDAIDKRFVGSLGTIIIKCKDFRIIQLDIPGMEECLNIASSIEALSTLDSITLMYPFFYRPMFEVIEDGWHSILPEQEFELYSSATSEWRLSYVNKEFAVCPSYPPIVTVPKSIDDEALRKVATFRHGGRFPVLSYYHKKNGMVIMRSGQPLTGTNGRRCKEDEKLINATLRAGKRGYIIDTRSLNVAQQTRAKGGGFEQEAHYPQWRRIHKSIERYHILQESLIKLVEACNDQTHNMDRWLSKLEASNWLTHIKEILTTACLAAQCIDREGASILIHGTEGTDSTLQVTSLAQIILEPRSRTIRGFEALIEREWLQAGHPFQQRCAQSAYCNTKQKWEAPVFLLFLDCVWQILRQFPCSFEFNENFLIMLFEHAYASQFGTFLGNNESERCKLKLQQKTMSLWSWVNQPSELSKFTNPLFEANNLVIWPSVAPQSLPLWEGIFLRWNRSSKYLDEAYEEMVNIIEYNKELQAKVNILRRQLAELETEDGMQESP [F127I],with no effect
